The values below come from paper doi:10.1101/199034 (bioRxiv, 2017).

Series [1] addresses human KATPem (human SUR1-human Kir6.2 fusion construct) (human). The experiment in a line: cryo-EM structure.
Series [2] concerns the molecule itself. Description: cryo-EM structure.

As to “human KATPem (human SUR1-human Kir6.2 fusion construct) (complex)”, the stoichiometry N – broadly, the number of molecules, sites or subunits per partner or assembly – in series [1] was 4.

B1: human Kir6.2 (natural protein, UniProt Q14654 1-390, looked up)
chain: MLSRKGIIPEEYVLTRLAEDPAKPRYRARQRRARFVSKKGNCNVAHKNIREQGRFLQDVFTTLVDLKWPHTLLIFTMSFLCSWLLFAMAWWLIAFAHGDLAPSEGTAEPCVTSIHSFSSAFLFSIEVQVTIGFGGRMVTEECPLAILILIVQNIVGLMINAIMLGCIFMKTAQAHRRAETLIFSKHAVIALRHGRLCFMLRVGDLRKSMIISATIHMQVVRKTTSPEGEVVPLHQVDIPMENGVGGNSIFLVAPLIIYHVIDANSPLYDLAPSDLHHHQDLEIIVILEGVVETTGITTQARTSYLADEILWGQRFVPIVAEEDGRYSVDYSKFGNTVKVPTPLCTARQLDEDHSLLEALTLASARGPLRKRSVPMAKAKPKFSISPDSLS
As to B1, the “stoichiometry N” value in series [2] amounted to 4.
